Assay results published in patent US7728193B2, “Phytochrome-interacting protein and a use thereof” (Genomine Inc., priority 2004, dated 2010).

Key:
phytochrome A = target: T1, phytochrome A (Arabidopsis thaliana, UniProt P14712); assay: In vitro binding assay (GST pull-down of 35S-labeled TnT protein); details: 1 μg GST-PAPP5 fusion protein, 4° C.
T1 sequence (P14712 1-1122): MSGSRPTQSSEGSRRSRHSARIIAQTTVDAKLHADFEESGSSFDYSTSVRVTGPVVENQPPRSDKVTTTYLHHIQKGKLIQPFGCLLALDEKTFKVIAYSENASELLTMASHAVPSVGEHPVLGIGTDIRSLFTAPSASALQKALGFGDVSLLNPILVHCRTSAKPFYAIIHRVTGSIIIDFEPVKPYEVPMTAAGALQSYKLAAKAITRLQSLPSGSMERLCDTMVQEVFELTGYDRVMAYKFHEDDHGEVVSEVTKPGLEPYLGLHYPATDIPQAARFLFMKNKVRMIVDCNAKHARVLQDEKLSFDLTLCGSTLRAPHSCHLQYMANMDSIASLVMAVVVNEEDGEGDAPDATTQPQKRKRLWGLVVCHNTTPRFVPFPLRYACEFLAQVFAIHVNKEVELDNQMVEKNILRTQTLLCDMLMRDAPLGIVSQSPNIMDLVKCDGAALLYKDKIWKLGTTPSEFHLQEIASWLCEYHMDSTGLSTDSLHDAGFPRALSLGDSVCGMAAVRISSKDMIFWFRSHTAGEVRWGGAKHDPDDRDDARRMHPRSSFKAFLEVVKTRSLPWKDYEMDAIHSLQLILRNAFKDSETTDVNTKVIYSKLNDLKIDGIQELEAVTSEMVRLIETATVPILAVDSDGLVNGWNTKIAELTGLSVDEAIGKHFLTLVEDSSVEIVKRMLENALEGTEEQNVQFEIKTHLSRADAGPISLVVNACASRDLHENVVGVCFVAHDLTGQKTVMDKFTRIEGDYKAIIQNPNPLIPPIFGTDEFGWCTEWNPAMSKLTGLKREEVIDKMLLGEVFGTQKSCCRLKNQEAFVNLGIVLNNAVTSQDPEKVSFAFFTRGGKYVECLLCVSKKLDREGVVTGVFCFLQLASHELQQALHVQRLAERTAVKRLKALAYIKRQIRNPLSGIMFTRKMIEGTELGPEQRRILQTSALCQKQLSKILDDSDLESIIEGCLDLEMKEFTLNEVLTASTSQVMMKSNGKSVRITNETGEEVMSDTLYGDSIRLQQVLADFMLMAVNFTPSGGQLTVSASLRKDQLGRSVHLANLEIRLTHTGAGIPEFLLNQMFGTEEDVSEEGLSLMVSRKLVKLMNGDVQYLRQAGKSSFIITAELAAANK
T1 sequence (Q84XU2 1-484 isoform Q84XU2-2 partner): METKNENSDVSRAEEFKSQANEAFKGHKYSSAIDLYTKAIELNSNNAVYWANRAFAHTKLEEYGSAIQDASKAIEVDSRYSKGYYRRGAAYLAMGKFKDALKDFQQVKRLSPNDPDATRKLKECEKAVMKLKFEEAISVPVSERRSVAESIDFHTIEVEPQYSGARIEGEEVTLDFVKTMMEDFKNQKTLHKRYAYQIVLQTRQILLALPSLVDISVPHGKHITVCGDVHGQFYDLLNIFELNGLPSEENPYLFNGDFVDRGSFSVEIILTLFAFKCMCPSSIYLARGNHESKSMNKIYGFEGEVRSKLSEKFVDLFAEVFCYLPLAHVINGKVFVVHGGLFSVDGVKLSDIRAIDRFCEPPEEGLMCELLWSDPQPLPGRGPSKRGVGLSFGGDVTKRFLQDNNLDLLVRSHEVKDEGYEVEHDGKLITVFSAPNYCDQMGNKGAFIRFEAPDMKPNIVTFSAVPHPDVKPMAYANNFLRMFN

[1] = In vitro phosphatase assay: enzymatic activity of PAPP5 and its domain fragments on ρNPP; format: biochemical; details: in the presence of 100 μM arachidonic acid
Method: In order to examine whether the inventive PAPP5 protein has enzymatic activity, an enzymatic assay was performed using […] ρ-nitrophenyl phosphate (ρNPP) as a substrate. First, the GST-PAPP5 fusion protein purified in Example <4-1> was prewarmed at 30° C. for 1 minute. The prewarmed enzyme solution was added to 100 μl of kinase/phosphatase (KP) buffer (20 mM Tris-HCl pH 7.5, 30 mM MgCl2, 1 mM EDTA, 1 mM EGTA, 0.1% β-mercaptoethanol, 0.1% ethanol) containing O-400 mM ρNPP to initiate a reaction. To examine the autohydrolysis of ρNPP at each substrate concentration, the GST-PAPP5 enzyme solution was not added to a control group. After reaction at 30° C. for 15 minutes, 900 μl of 0.25N NaOH was added to terminate the reaction. The absorbance at 410 nm was measured. After subtracting the absorbance value of the control reaction solution containing all the components except for the enzyme from that of the reaction solution containing the enzyme, the rate was calculated using a millimolar extinction coefficient (17.8) of ρ-nitrophenolate ions.
Thus, in order to confirm if PAPP5 also have this property, the present inventors examined the phosphatase activities of GST-PAPP5, GST-TPR and GST-PP2Ac in the same manner as in Example <6-1>. At this time, the concentration of ρNPP was 100 mM.

## PAPP5: type 5 serine/threonine protein phosphatase of Arabidopsis thaliana interacting with phytochromes, SEQ ID NO: 4
Phytochrome A
  binding to phytochrome A: has the property of binding
[1]
  Km (Michaelis-Menten): 160 mM ρNPP
  Vmax (Michaelis-Menten): 22 μmmol Pi released/min/mg
